Blank lines part the entries; values can stand above or below the binder they belong to.
How the values were obtained:
[1] = target: T1, CD59 (UniProt P13987 26-102, limits assumed); assay: flow cytometry on cells transfected with the target; signal over mock-transfected cells (background = 1.0)
T1 construct: whole, on cells
T1 sequence (looked up): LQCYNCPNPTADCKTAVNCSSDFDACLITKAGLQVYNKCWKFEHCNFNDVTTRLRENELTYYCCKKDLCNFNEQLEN
Source text: (§1) Antibodies were generated using the common light chains B9, F10, C11, and H11 paired with 8 different heavy chains. […] Binding is expressed as Signal:Background for binding to the molecular target of the heavy chain antibody (listed at top of Table 4). Expression is based on binding to cells expressing an Fc-binding protein (the ZZ domain of ProA) (ZZ) on their surface, enabling total antibody to bind and be measured. Detection was using flow cytometry with cells transfected to express the target protein. Background binding S:B is normalized to 1.0, using mock-transfected cells as background. The data in the table below illustrate that the light chains can be used with a variety of heavy chains and the antibody generated from a VH that can bind to the light chains B9 and F10 will function and bind to the target of interest.

[2] = target: T2, Fc-binding protein (the ZZ domain of ProA); assay: flow cytometry on cells expressing the Fc-binding ZZ domain on their surface; given as a measure of expression
T2 construct: domain: ZZ domain of ProA; the construct is not described
Source text: as §1

S:B Binding [1]: 0.7 S:B
S:B Expression [2]: 11.8 S:B
B1: Antibody of common light chain B9 (B9chicken) paired with the heavy chain against CD59 (antibody, V domains shown)
VH: AVTLDESGGGLQTPGGGLSLVCKASGFDFSSFDMVWVRQAPGKGLEWVAGISYSNTDTSYAPAVDGRATISRDNGQSTVRLQLNNLRAEDSATYYCAKSAGGCCYRADNIDAWGHGTEVIVSS
VL: ALTQPSSVSANPGETVKITCSGGGSSNYYGWYQQKSPGSAPVTLIYGTNKRPSDIPSRFSGSKSGSTGTLTITGVQADDEAVYFCGSADSSTNAGIFGAGTTLTVL
notes: also called HC-CD59

S:B Binding [1]: 1.4 S:B
S:B Expression [2]: 12.2 S:B
B2: Antibody of common light chain C11 (C11chicken) paired with the heavy chain against CD59 (antibody, V domains shown)
VH: B1 VH
VL: ALTQPSSVSANPGETVKITCSGGGSWYGSYYYGWYQQKSPGSAPVTLIYNNDKRPSDIPSRFSGSESGSTATLTITGVQAEDEAVYFCGGYDSTTTDMFGAGTTLTVL
notes: also called HC-CD59

Reference: patent US20200262898A1 (INTEGRAL MOLECULAR, published 2020)
